Assay results published in patent US20260061042A1, “POLYNUCLEOTIDE COMPOSITIONS AND USES THEREOF” (Pfizer Inc., priority 2024, published 2026).
Where a chain is given by its changes, count along the chain named. Names may count otherwise. “Also recorded” adds a separate entry of the source.

B1: PapG^LD N96S G104A: PapG lectin domain N96S with G104A ligand binding site mutation; SEQ ID NO: 16 (protein)
chain: METDTLLLWVLLLWVPGSTGWNNIVFYSLGNVNSYQGGNVVITQRPQFITSWRPGIATVTWNQCNGPEFADGSWAYYREYIAWVVFPKKVMTKNGYPLFIEVHNKGSWSEENTGDSDSYFFLKAYKWDERAFDAGNLCQKPGETTRLTEKFNDIIFKVALPADLPLGDYSVTIPYTSGIQRHFASYLGARFKIPYNVAKTLPRENEMLFLFKNIGG
B2: PapG^LD N96S G122A: PapG lectin domain N96S with G122A putative conformation stabilizing mutation; SEQ ID NO: 20 (protein)
chain: B1 chain with A124G, G142A
B3: PapG^LD N96S WTv1: WT PapG lectin domain (V1, first PapG operon), N96S removes non-native glycosylation, His-tagged; SEQ ID NO: 13 (protein)
chain: B1 chain with A124G
modifications: His tag
B4: PapG^DSF N96S N242S N286S: Full-length donor strand complemented PapG, fully aglycosylated at N96S, N242S and N286S, His-tagged (protein)
chain: WNNIVFYSLGNVNSYQGGNVVITQRPQFITSWRPGIATVTWNQCNGPEFADGSWAYYREYIAWVVFPKKVMTKNGYPLFIEVHNKGSWSEENTGDSDSYFFLKGYKWDERAFDAGNLCQKPGETTRLTEKFNDIIFKVALPADLPLGDYSVTIPYTSGIQRHFASYLGARFKIPYNVAKTLPRENEMLFLFKNIGGCRPSAQSLEIKHGDLSINSANNHYAAQTLSVSCDVPANIRFMLLRSTTPTYSHGKKFSVGLGHGWDSIVSVNGVDTGETTMRWYKAGTQSLTIGSRLYGESSKIQPGVLSGSATLLMILPGGSSGGADVQINIRGNVYIPP
B5: BMD576_PapG-DSF K172A_Thy1-GPI: monovalent PapG modRNA LNP; RNA construct SEQ ID NO: 66 (nucleic acid)
chain: AGGAGGACUGGUCGAACCUGCAUAGUGAUCAUAAGGUCAGCAUAGCCACCAUGGAGACCGACACCCUCCUGCUGUGGGUGCUGUUACUGUGGGUGCCCGGUAGCACCGGCUGGAACAACAUCGUGUUCUACAGCCUGGGCAACGUGAACAGCUACCAAGGCGGCAACGUGGUGAUCACACAGAGACCUCAGUUCAUCACAAGCUGGAGACCCGGCAUCGCCACCGUGACCUGGAAUCAGUGCAACGGCCCCGAGUUCGCCGACGGCAGCUGGGCCUACUACAGAGAGUACAUCGCCUGGGUGGUGUUCCCCAAGAAGGUGAUGACCAAGAACGGCUACCCCCUGUUCAUCGAGGUGCACAACAAGGGCAGCUGGAGCGAGGAGAACACCGGCGACAGCGACAGCUACUUCUUCCUGAAGGGCUACAAGUGGGACGAGAGAGCCUUCGACGCCGGCAACCUGUGUCAGAAGCCGGGGGAGACCACAAGACUUACCGAGAAGUUCAACGACAUCAUCUUCAAGGUGGCCCUGCCCGCCGACCUGCCCCUGGGCGACUACAGCGUGACCAUCCCCUACACAAGCGGCAUUCAGAGACACUUCGCUAGCUACCUGGGCGCUAGAUUCGCCAUCCCCUACAACGUGGCCAAGACCCUGCCUAGAGAGAACGAGAUGCUGUUCCUGUUCAAGAACAUCGGCGGCUGCAGACCUAGCGCUCAGAGCCUGGAGAUCAAGCACGGCGACCUGAGCAUCAACAGCGCCAACAACCACUACGCCGCUCAGACCCUGAGCGUGAGCUGCGACGUGCCCGCCAACAUCAGAUUCAUGCUGCUGAGAUCAACCACCCCCACCUACAGCCACGGCAAGAAGUUCAGCGUGGGCCUGGGCCACGGCUGGGACAGCAUCGUGAGCGUGAACGGCGUGGACACGGGCGAGACCACUAUGCGUUGGUACAAGGCCGGCACACAGAGCCUGACCAUCGGCAGCAGACUGUAUGGCGAAAGCUCCAAAAUCCAACCCGGCGUGCUGUCGGGGAGCGCCACCCUGCUGAUGAUACUGCCCGGAGGCAGCAGCGGCGGCGCCGACGUGCAGAUCAACAUCAGAGGCAACGUGUAUAUUCCGCCUAGCAGUGGUGGUGGGGGUAGCUCCGGCUCCGGAAGCAGCUGCGAGGGCAUCAGCCUGCUGGCUCAGAACACAAGCUGGCUGCUGCUGCUGCUGCUGAGCCUGAGCCUGCUGCAAGCCACCGACUUCAUGAGCCUGUGAUGAGCUCGCUUUCUUGCUGUCCAAUUUCUAUUAAAGGUUCCUUUGUUCCCUAAGUCCAACUACUAAACUGGGGGAUAUUAUGAAGGGCCUUGAGCAUCUGGAUUCUGCCUAAUAAAAAACAUUUAUUUUCAUUGCAAAAAAAAAAAAAAAAAAAAAAAAAAAAAAAAAAAAAAAAAAAAAAAAAAAAAAAAAAAAAAAAAAAAAAAAAAAAAAAAAA
modifications: modRNA in LNP

Experiments:
[1] = PapG Luminex ligand binding assay with globoside GbO4; conditions: result in words
Experimental: 9. PapG Ligand Binding Assay with Globoside GbO4
To determine the ability of PapGLD mutants to bind the porcine derived globotetraosyl ceramide ligand GalNAc-Gal-Gal-Glc-ceramide (GbO4), a Luminex ligand binding assay was developed. Surfactant Protein-A (SP-A) was coupled to the surface of MagPlex beads by EDC/NHS, to capture the lipid tail of the globotetraosyl ceramide. The Globotetraosyl ceramide/SP-A beads were incubated with an eight-point threefold titration of PapG in a 96 well flat bottom white plate with final volume of 100 microliters of 50 mM HEPES PH 7.4, 10 mM NaCl, 0.0005% Tween 20 shaking at 300 rpm, 4° C. overnight. After 20-24 hours the ligand binding plates were read on a FlexMap 3D plate reader for measurement of well-bead region specific MFI. Ligand binding equilibrium dissociation constants (Kd) were calculated assuming one site specific binding and interpolated using non-linear curve fitting (GraphPad Prism) as the ligand concentration needed to achieve half-maximal binding. The Luminex derived apparent Kd values are based on approximately fifty bead counts per assay sample.
Binding of PapG proteins to GbO2 or GbO4 ligands was evaluated using a Luminex platform wherein ligands were coupled to MagPlex beads via surfactant protein A (for […]) or directly using […] conjugation (for […]). This assay was used to rank order binding affinities of the mutants, reported as Kd values interpolated from protein antigen titration curves (Table 7).

[2] = Thermal shift (SYPRO orange) melting temperature, apo form; assay type: physicochemical; conditions: apo state, PBS pH 7.4
Experimental: PapG proteins were added to assay buffer (consisting of 4% DMSO, 1:1000 dilution of SYPRO orange (Invitrogen S6650) in PBS pH 7.4) at a final concentration of […]. Melt curves were analyzed in a QuantStudio 6 Real-time PCR system (ThermoFisher) using a dissociation protocol from 25° C. to 99° C., at 0.05° C./second. ROX was specified as the reporter.
The thermal stability of PapG WT and mutant proteins were determined using a SYPRO orange thermal shift-based differential scanning fluorimetry assay, wherein Tm designates the temperature at which 50% of the protein is unfolded. Non-covalent ligands often stabilize protein targets upon specific binding, resulting in an increase in protein melting temperature. Tm were therefore determined in the presence and absence of GbO3 for PapG, and the difference in Tm (ΔTm) of protein in the presence of ligand relative to the apo form was calculated.

[3] = system: E. coli strain CFT073 expressing the fimbrial adhesin PapG; assay: PapG hemagglutination inhibition (HAI) assay on sera of mice immunized with PapG modRNA LNPs; assay type: in vivo; conditions: 1 μg, 50 μl IM
Text: Escherichia coli to the uroepithelium of human kidney. The PapG lectin binds to the globoside (GbO4) glycolipid, which is enriched in urinary tract tissue and consists of the tetrasacharide GalNAcβ1-3Galα1-4Galβ1-4Glc linked to ceramide. Here we present the use of a hemagglutination inhibition assay (HAI) to determine vaccine functional responses to protein subunit PapG or mRNA-expressed PapG antigens. In this assay the agglutination of human red blood cells (hRBCs) expressing GbO4 is caused by live E. coli CFT073 bacteria expressing PapG. The HAI assay measures the ability of PapG-elicited antibodies to prevent hRBC agglutination, exemplifying inhibition of the key bacterial adherence mechanism leading to clinical pyelonephritis. The assay was used to characterize the functional activity of PapG monoclonal antibodies (mAbs) raised against a PapG lectin domain subunit antigen. PapG HAI data from a mouse immunogenicity study are described that evaluated various 5 monovalent PapG modRNA LNPs and a PapG subunit comparator.
In this mouse study immunogenicity of different PapG mRNA constructs were evaluated. […]
iii. PapG Hemagglutination Inhibition Assay (HAI) 1. Preparation of Single Use Frozen E. coli CFT073 Banks Frozen bacterial stocks for use in the PapG HAI are stored at a concentration of ˜15 OD/mL. For stock preparation, take 6 ×100 μL of frozen parental strain CFT073 glycerol stock to seed six overnight cultures with ˜85 mL Luria's Broth (LB) each in 250 mL vented flasks. Flasks are shaken at 200 rpm and 37° C. overnight. On the same day, prepare 100 mL LB media with 30% glycerol and 0.4% sucrose by mixing […] 80% Glycerol with 0.8 mL 50% Sucrose in 64 mL LB and pre-chill at 4° C. After ˜16 h growth, determine the OD600 nm of each flask with the SpectraMax M5e plate reader by adding 100 μL culture to 900 μL LB (1:10 dilution). After reading the OD600, harvest cells by pelleting in a centrifuge at 4,000g, 4° C., for 30 minute. Determine the total OD of each of the six flasks, by multiplying the volume by OD/mL of each flask and divide by 15 OD to give the appropriate pellet resuspension volume. Discard supernatants and resuspend all pellets in the pre-chilled LB cryopreservant containing 30% glycerol and 0.4% sucrose, with a final volume as calculated above. Pool all resuspended pellets and mix gently, then aliquot into 1 mL/cryotube, and freeze at −70° C.
2. Preparing 10% hRBC Working Solution From Stock
Gently mix human red blood cells (hRBC) bottle (Rockland) by rocking ˜20×times, pipet out 10 mL of the hRBCs into a 15 ml conical tube. Centrifuge at 2,000 rpm(˜990×g) for 10 minutes and 4° C. Aspirate and discard the supernatant, then resuspend the pellet with 9 mL 4° C. PBS. The packed hRBCs in 15 mL conical tube should constitute roughly 1 mL of this total volume. Store these 10% hRBCs at 4° C. until use. […]
iv. PapG Hemagglutination Inhibition (HAI) Assay
The PapG hemagglutination inhibition (HAI) assay uses human red blood cells (hRBCs), which naturally express the PapG ligand GbO4 (globotetraosyl ceramide) on the cell surface, and the E. coli strain CFT073 expressing the fimbrial adhesin PapG. Upon mixing bacteria with hRBCs, […] cells remain suspended (presenting as a cloudy well), while no binding results in the red blood cells falling out of solution towards the center of the well (observed as pellet).
The total final well volume is 100 μL, with serum dilutions comprising 25 μL of this volume, strain CFT073 cells in […] volume, and hRBCs in a 50 μL volume. The assay plate is a V-bottom plate to which 25 μL 4° C. PBS is initially added to all wells. The positive control wells receive an additional 25 μL 4° C. PBS. The no-serum negative control consists of E. coli CFT073 cells plus hRBCs only (resulting agglutinated well appears cloudy). To accommodate pre-diluted sera transferred from the serum Master Dilution plate (MDP) an extra 5 μL 4° C. PBS is added to wells in Row A of the assay plate (columns 1 to 12). […]

Molecule | binding to GbO4 ligand [1] | Tm (Ave.) [2] [°C] | Step Titer GMT (HAI) ([3]; weeks 0, 4, bleed week 6, GMT of individual titers) | Step Titer Pool (HAI) ([3]; weeks 0, 4, bleed week 6, serum pool)
B1 | prevent binding to GbO4; also recorded: lower the binding affinity; also recorded: eliminate ligand binding | 64.54 | – | –
B2 | reduced binding | – | – | –
B3 | – | 61.29 | – | –
B4 | – | 61.82 | – | –
B5 | – | – | 85,681 | 81,000
